Source: US20120201792A1, “METHODS AND PRODUCTS FOR MANIPULATING HEMATOPOIETIC STEM CELLS” (The General Hospital Corporation, priority 2000, published 2012)

T1: KIAA0001 receptor (Homo sapiens, UniProt Q15391)
T1 sequence (Q15391 1-338): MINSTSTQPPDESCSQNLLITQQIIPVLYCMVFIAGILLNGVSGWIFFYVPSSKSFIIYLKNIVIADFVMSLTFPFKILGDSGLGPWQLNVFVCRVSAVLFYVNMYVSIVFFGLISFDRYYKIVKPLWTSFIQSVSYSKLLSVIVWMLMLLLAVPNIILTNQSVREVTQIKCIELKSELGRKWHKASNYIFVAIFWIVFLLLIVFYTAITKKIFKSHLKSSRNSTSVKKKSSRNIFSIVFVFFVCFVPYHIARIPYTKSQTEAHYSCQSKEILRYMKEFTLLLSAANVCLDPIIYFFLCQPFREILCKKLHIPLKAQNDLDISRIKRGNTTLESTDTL

T2: SC-GPR (Homo sapiens, UniProt Q15391)
T2 sequence (Q15391 1-338): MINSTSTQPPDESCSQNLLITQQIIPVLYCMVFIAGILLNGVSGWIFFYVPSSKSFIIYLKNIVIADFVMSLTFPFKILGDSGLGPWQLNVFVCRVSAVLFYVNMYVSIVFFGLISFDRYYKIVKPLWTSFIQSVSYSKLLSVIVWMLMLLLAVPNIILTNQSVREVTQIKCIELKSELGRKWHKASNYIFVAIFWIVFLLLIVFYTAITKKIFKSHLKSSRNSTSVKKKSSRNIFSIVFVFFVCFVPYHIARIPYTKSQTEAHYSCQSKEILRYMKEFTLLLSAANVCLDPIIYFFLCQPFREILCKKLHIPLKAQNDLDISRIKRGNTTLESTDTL


Molecular target: T1, KIAA0001 receptor
Test: not given
Settings: Chambers et al., 2000 J Biol Chem; cited from earlier work

Molecule	binding to the receptor and induction of calcium flux
CC(=O)N[C@H]1[C@@H](OP(=O)(O)OP(=O)(O)OC[C@H]2O[C@@H](n3ccc(=O)[nH]c3=O)[C@H](O)[C@@H]2O)O[C@H](CO)[C@@H](O)[C@@H]1O [UDP-N-acetylglucosamine]	bind to the receptor and induce calcium flux
O=C(O)[C@H]1O[C@H](OP(=O)(O)OP(=O)(O)OC[C@H]2O[C@@H](n3ccc(=O)[nH]c3=O)[C@H](O)[C@@H]2O)[C@H](O)[C@@H](O)[C@@H]1O [UDP-glucuronic acid]	bind to the receptor and induce calcium flux

Molecular target: T2, SC-GPR
Test: Intracellular calcium flux (Fura-2) in Cos-7 cells expressing SC-GPR
Settings: Fura-2 loaded cells expressing SC-GPR, fluorescence ratio F340/F380

Molecule	calcium flux / activation of SC-GPR expressing cells
Nc1ncnc2c1ncn2[C@@H]1O[C@H](COP(=O)(O)OP(=O)(O)OP(=O)(O)O)[C@@H](O)[C@H]1O [ATP]	failed to result in activation
CCCCC/C=C\C[C@@H](O)/C=C/C=C/C=C\[C@@H](O)CCCC(=O)O [LTB4]	failed to result in activation
CCCCCCCCCCCCCCCCOC[C@H](COP(=O)([O-])OCC[N+](C)(C)C)OC(C)=O [PAF]	failed to result in activation
IL-8: known chemokine screened as potential SC-GPR ligand	failed to result in activation
MCP 1: known chemokine screened as potential SC-GPR ligand	failed to result in activation
MCP 3: printed as "MCP 1, 3, 4"; known chemokine screened	failed to result in activation
MCP 4: printed as "MCP 1, 3, 4"; known chemokine screened	failed to result in activation
MIP1a: known chemokine screened as potential SC-GPR ligand	failed to result in activation
PF4: known chemokine screened as potential SC-GPR ligand	failed to result in activation
RANTES: known chemokine screened as potential SC-GPR ligand	failed to result in activation
SDF-1: known chemokine screened as potential SC-GPR ligand	failed to result in activation
MIP1b: known chemokine screened as potential SC-GPR ligand (protein) APMGSDPPTACCFSYTARKLPRNFVVDYYETSSLCSQPAVVFQTKRSKQVCADPSESWVQEYVYDLELN	failed to result in activation
TARC: known chemokine screened as potential SC-GPR ligand (protein) ARGTNVGRECCLEYFKGAIPLRKLKTWYQTSEDCSRDAIVFVTVQGRAICSDPNNKRVKNAVKYLQSLERS	failed to result in activation
